One may read the stoichiometry N as the number of molecules, sites or subunits per partner or assembly. For orientation: Kd means the constant that tells how readily two partners part at equilibrium. A higher Kd goes with lower affinity.

B1: LcrV with a deletion of the N-terminal domain (domain or fragment)
chain: SKLREELAELTAELKIYSVIQAEINKHLSSGGTINIHDKSINLMDKNLYGYTDEEIFKASAEYKILEKMPQTTIQEGETEKKIVSIKNFLESEKKRTGALGNLKDSYSYNKDNNELSHFATTCSDKSRPLNDLVSQKTTQLSDITSRFNSAIEALNRFIQKYDSVMQRLLDDTSGK
B2: LcrG, full length (natural protein)
chain: MKSSHFDEYDKTLKQAELAIADSDHRAKLLQEMCADIGLTPEAVMKIFAGRSAEEIKPAERELLDEIKRQRERQPQHPYDGKRPRKPTMMRGQII

Series [1] concerns the molecule itself. Kind of series: […]; 50 mM NaCl, 30 mM phosphate buffer, 1 mM TCEP.
The target in series [2] is B1. Kind of series: ITC; […] ([…]) […] ([…]) […]; 25°C; 30 mM phosphate buffer, 50 mM NaCl, 1 mM TCEP, pH 7.0. To be noted: both partners purified. A general note: In ITC the heat of successive injections is recorded.
Series [3] has as its target LcrV with a deletion of the N-terminal 23 residues (Yersinia pseudotuberculosis, UniProt P23994 24-326). The series is described as above. To be noted: both partners purified.
In a further series the target is LcrV, full length (Yersinia pseudotuberculosis, UniProt P23994 1-326). Kind of series: ITC. To be noted: both partners purified.

As for B1, the “stoichiometry N” value in series [1] was found to be 3.

Take B2: the equilibrium dissociation constant (Kd) was not above 10 nM in series [2]; 54 ± 8.8 nM in series [3]; 127 ± 63 nM with LcrV, full length.

The record behind these values is article PMC12720783 (Protein Science : A Publication of the Protein Society, 2025).
